Results reported in PMC2606041 (Structure (London, England : 1993), 2008).

B1: AbhN (N-terminal DNA-binding domain of Abh, residues 1-54) (domain or fragment, Bacillus subtilis, UniProt P39758 1-54, looked up)
chain: MKSIGVVRKVDELGRIVMPIELRRALDIAIKDSIEFFVDGDKIILKKYKPHGVC
B2: SpoVTN (N-terminal DNA-binding domain of SpoVT, residues 1-55) (domain or fragment, Bacillus subtilis, UniProt P37554 1-55, looked up)
chain: MKATGIVRRIDDLGRVVIPKEIRRTLRIREGDPLEIFVDRDGEVILKKYSPISEL

Experiments:
[1] = target: the molecule itself; test: NMR solution structure
[2] = target: the molecule itself; test: SEC

| Protein | binding result [1] | stoichiometry N [2] |
| --- | --- | --- |
| B1 | binds | – |
| B2 | – | 2 |
